Measurements: the supplement of paper PMC9233669
This sample holds only a part of the variants without activity.

How the values were obtained:
biotinyl-Ile-oxazolone = assay: self-aminoacylation, catalytic enhancement (BIO) (fold over background); higher = more active; k-Seq, kA / k0A0; sequences stand for … in GGGAAUGGAUCCACAUCUACGAAUUC…UUCACUGCAGACUUGACGAAGCUG
How it was run: (§1)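 Mutagenized RNA pools (0.43 μM; 21-nt variable region) were treated with 2–1250 μM of each biotinyl-aminoacyl-oxazolone. Conditions were 50 μL HEPES/NaCl/KCl/MgCl2/CaCl2 buffer, 5% acetonitrile, pH 6.9–7.0, room temperature, 90 minutes. Catalytic enhancement, the median kA relative to the uncatalyzed rate, was derived from streptavidin capture, qPCR and Illumina sequencing.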

biotinyl-Trp-oxazolone = assay: self-aminoacylation, catalytic enhancement (BWO) (fold over background); higher = more active; k-Seq, kA / k0A0; sequences stand for … in GGGAAUGGAUCCACAUCUACGAAUUC…UUCACUGCAGACUUGACGAAGCUG
How it was run: as §1

biotinyl-Leu-oxazolone = assay: self-aminoacylation, catalytic enhancement (BLO) (fold over background); higher = more active; k-Seq, kA / k0A0; sequences stand for … in GGGAAUGGAUCCACAUCUACGAAUUC…UUCACUGCAGACUUGACGAAGCUG
How it was run: as §1

biotinyl-Phe-oxazolone = assay: self-aminoacylation, catalytic enhancement (BFO) (fold over background); higher = more active; k-Seq, kA / k0A0; sequences stand for … in GGGAAUGGAUCCACAUCUACGAAUUC…UUCACUGCAGACUUGACGAAGCUG
How it was run: as §1

biotinyl-Val-oxazolone = assay: self-aminoacylation, catalytic enhancement (BVO) (fold over background); higher = more active; k-Seq, kA / k0A0; sequences stand for … in GGGAAUGGAUCCACAUCUACGAAUUC…UUCACUGCAGACUUGACGAAGCUG
How it was run: as §1

biotinyl-Met-oxazolone = assay: self-aminoacylation, catalytic enhancement (BMO) (fold over background); higher = more active; k-Seq, kA / k0A0; sequences stand for … in GGGAAUGGAUCCACAUCUACGAAUUC…UUCACUGCAGACUUGACGAAGCUG
How it was run: as §1

Sequence | self-aminoacylation (biotinyl-Ile-oxazolone) | self-aminoacylation (biotinyl-Trp-oxazolone) | self-aminoacylation (biotinyl-Leu-oxazolone) | self-aminoacylation (biotinyl-Phe-oxazolone) | self-aminoacylation (biotinyl-Val-oxazolone) | self-aminoacylation (biotinyl-Met-oxazolone)
CUACUUUAACCAAUCGGUCUG [Fam1A.1 aminoacylation ribozyme variant] | 0.883 | 0.949 | 0.662 | 1.22 | 0.842 | 0.779
CCACACUCCAAGCAAUCGGCC [Fam1B.1 aminoacylation ribozyme variant] | 1.63 | 2.59 | 1.28 | 2.68 | 2.36 | 1.36
AACUUUGCUAAUAGUCGAAAG [Fam3.1 aminoacylation ribozyme variant] | 2.25 | 2.01 | 2.47 | 2.63 | 1.87 | 2.31
AAGUUUGGUAUUAGUCGCAAG [Fam3.1 aminoacylation ribozyme variant] | 1.65 | 1.74 | 1.5 | 2.44 | 1.47 | 1.51
CUCCACCUAGGUCAUCGGGUG [Fam2.2 aminoacylation ribozyme variant] | 3.95 | 7.04 | 5.74 | 36.3 | 5.19 | 5.98
CCACACUUCAGGCAAUCGUUC [Fam1B.1 aminoacylation ribozyme variant] | 0.704 | 0.422 | 0.585 | 0.772 | 0.792 | 0.618
CUACUUCAAAUAAUCGAUCUG [Fam1A.1 aminoacylation ribozyme variant] | 0.669 | 0.839 | 0.495 | 1.94 | 0.592 | 0.534
AUUCACCUUGGUCAUCGGGUC [Fam2.2 aminoacylation ribozyme variant] | 1.2 | 1.28 | 1.15 | 4.87 | 1.58 | 1.32
CUACUUCAAACAAUCGAUCUG [Fam1A.1 aminoacylation ribozyme variant] | 0.663 | 1.34 | 0.572 | 3.4 | 0.693 | 0.574
AAGUUUGCUAAUAGCCGCAUG [Fam3.1 aminoacylation ribozyme variant] | 1.07 | 1.54 | 1.19 | 2 | 1.1 | 1.12
CUACUUCAAUCAACCGGUCUG [Fam1A.1 aminoacylation ribozyme variant] | 0.925 | 0.663 | 0.729 | 0.9 | 0.806 | 0.525
CUACUUCAAACAAGGGGUCUG [Fam1A.1 aminoacylation ribozyme variant] | 0.773 | 0.593 | 0.748 | 0.71 | 0.801 | 0.746
AUUACCCUGCUAAUCGAGUGA [Fam2.1 aminoacylation ribozyme variant] | 1.44 | 3.01 | 2.41 | 11.2 | 1.58 | 2.41
AUUACACUGGUCAUCGAGUGU [Fam2.1 aminoacylation ribozyme variant] | 1.73 | 3.07 | 2.47 | 2.05 | 1.66 | 2.61
CCACACUCCAAACAAUCGGUC [Fam1B.1 aminoacylation ribozyme variant] | 0.982 | 6.11 | 1.09 | 10.9 | 1.31 | 0.917
AAGUUUGCUAAUAUCCGCAAG [Fam3.1 aminoacylation ribozyme variant] | 0.911 | 0.739 | 0.845 | 1.18 | 0.886 | 0.725
AAGUUUGCUGAUAGUCGCUAG [Fam3.1 aminoacylation ribozyme variant] | 1.14 | 1.11 | 1.08 | 1.86 | 1.26 | 1.31
CUACACUUCUAGCAAUCGGUC [Fam1B.1 aminoacylation ribozyme variant] | 0.706 | 0.565 | 0.669 | 0.693 | 0.635 | 0.572
AUUCACCUAGCUCUUCGGGUG [Fam2.2 aminoacylation ribozyme variant] | 2.08 | 2.74 | 2.62 | 10.9 | 2.42 | 2.25
AUUCACCUAAGUCAACGGGUG [Fam2.2 aminoacylation ribozyme variant] | 2.58 | 3.21 | 4.67 | 28 | 2.43 | 3.57
AUUACCUUGGUCAUUGAGUGA [Fam2.1 aminoacylation ribozyme variant] | 4.08 | 10.2 | 7.89 | 32.4 | 4.11 | 8.51
